Experimental data taken from the supplement of paper PMC9112550, “Optimization of the antimicrobial peptide Bac7 by deep mutational scanning” (BMC Biology, 2022).

test system: Escherichia coli TOP10; assay: shrunken log2 fold change of peptide-encoding DNA abundance (4.5 h post-induction vs induction); higher = less antimicrobial activity (less host growth inhibition); details: time post-induction: 4.5 h; library: site-saturation at positions 5, 18, 19, 20
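Note: peptides expressed intracellularly from a pBAD plasmid library in pooled LB shake-flask culture, induced with 0.3% L-arabinose, DNA abundance read by NGS, three biological replicates, DESeq2 with apeglm shrinkage.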

Compared with RRIRDRPPRLPRPRPRPPKVPRP, RRIRTRPPRLPRPRPRPPCEPRP is lower in “shrunken log2 fold change” value: 0.387 for the first, 0.0977 for the second.

RRIRERPPRLPRPRPRPNYCPRP and RRIRPRPPRLPRPRPRPCQNPRP are within 0.2 log units of each other in “shrunken log2 fold change” value: -0.0596 for the first, -0.0169 for the second.

RRIRMRPPRLPRPRPRPGRYPRP and RRIRYRPPRLPRPRPRPRYRPRP are within 0.2 log units of each other in “shrunken log2 fold change” value: 0.0164 for the first, -0.0551 for the second.

RRIRTRPPRLPRPRPRPMYKPRP and RRIRWRPPRLPRPRPRPWFTPRP are within 0.2 log units of each other in “shrunken log2 fold change” value: -0.0126 for the first, -0.0224 for the second.

Compared with RRIRLRPPRLPRPRPRPYWTPRP, RRIRQRPPRLPRPRPRPKVFPRP is higher in “shrunken log2 fold change” value: -0.435 for the first, -0.00192 for the second.

First: RRIRQRPPRLPRPRPRPRDYPRP
Second: RRIRTRPPRLPRPRPRPFDVPRP
The “shrunken log2 fold change” value of the first is higher: 0.0272 for the first, -0.243 for the second.

Going from RRIRNRPPRLPRPRPRPHKNPRP to RRIRTRPPRLPRPRPRPPLEPRP, the “shrunken log2 fold change” value rises from -0.237 to 0.531.

RRIRYRPPRLPRPRPRPYGAPRP and RRIRTRPPRLPRPRPRPMPFPRP are within 0.2 log units of each other in “shrunken log2 fold change” value: -0.202 for the first, -0.00604 for the second.

Compared with RRIRLRPPRLPRPRPRPRLKPRP, RRIRFRPPRLPRPRPRPYDSPRP is lower in “shrunken log2 fold change” value: 0.885 for the first, -0.924 for the second.

RRIRHRPPRLPRPRPRPEVSPRP and RRIRERPPRLPRPRPRPFSFPRP are within 0.2 log units of each other in “shrunken log2 fold change” value: -0.0122 for the first, 0.122 for the second.

Compared with RRIRTRPPRLPRPRPRPAMHPRP, RRIRNRPPRLPRPRPRPWATPRP is lower in “shrunken log2 fold change” value: 0.289 for the first, -0.188 for the second.

Compared with RRIRERPPRLPRPRPRPVVDPRP, RRIRTRPPRLPRPRPRPPPNPRP is higher in “shrunken log2 fold change” value: 0.0306 for the first, 1.22 for the second.

First: RRIRGRPPRLPRPRPRPKESPRP
Second: RRIRTRPPRLPRPRPRPRSQPRP
The “shrunken log2 fold change” value of the first is lower: 0.981 for the first, 1.58 for the second.

RRIRMRPPRLPRPRPRPFCDPRP and RRIRERPPRLPRPRPRPIIEPRP are within 0.2 log units of each other in “shrunken log2 fold change” value: 0.179 for the first, 0.0238 for the second.

First: RRIRHRPPRLPRPRPRPFFCPRP
Second: RRIRCRPPRLPRPRPRPTIFPRP
The “shrunken log2 fold change” value of the first is higher: -0.16 for the first, -0.626 for the second.

Compared with RRIRIRPPRLPRPRPRPQNPPRP, RRIRARPPRLPRPRPRPQFRPRP is higher in “shrunken log2 fold change” value: -0.38 for the first, -0.123 for the second.

RRIRPRPPRLPRPRPRPEWSPRP and RRIRHRPPRLPRPRPRPHNIPRP are within 0.2 log units of each other in “shrunken log2 fold change” value: -0.0838 for the first, -0.209 for the second.

Going from RRIRFRPPRLPRPRPRPEMMPRP to RRIRGRPPRLPRPRPRPWHMPRP, the “shrunken log2 fold change” value falls from 0.00382 to -0.345.

First: RRIRLRPPRLPRPRPRPNHPPRP
Second: RRIRCRPPRLPRPRPRPTWDPRP
The “shrunken log2 fold change” value of the first is lower: -0.498 for the first, 0.151 for the second.

RRIRERPPRLPRPRPRPKTFPRP and RRIRGRPPRLPRPRPRPYSDPRP are within 0.2 log units of each other in “shrunken log2 fold change” value: 0.0567 for the first, -0.11 for the second.

Going from RRIRVRPPRLPRPRPRPATYPRP to RRIRERPPRLPRPRPRPTYYPRP, the “shrunken log2 fold change” value falls from -0.0417 to -0.614.

Going from RRIRGRPPRLPRPRPRPCLDPRP to RRIRERPPRLPRPRPRPGYRPRP, the “shrunken log2 fold change” value falls from -0.0991 to -0.408.

RRIRRRPPRLPRPRPRPRHFPRP and RRIRVRPPRLPRPRPRPHWHPRP are within 0.2 log units of each other in “shrunken log2 fold change” value: -0.156 for the first, -0.0411 for the second.

RRIRNRPPRLPRPRPRPVKAPRP and RRIRLRPPRLPRPRPRPSETPRP are within 0.2 log units of each other in “shrunken log2 fold change” value: -0.0518 for the first, -0.0373 for the second.

RRIRQRPPRLPRPRPRPRAQPRP and RRIRFRPPRLPRPRPRPEACPRP are within 0.2 log units of each other in “shrunken log2 fold change” value: -0.0701 for the first, -0.0833 for the second.

RRIRCRPPRLPRPRPRPNEAPRP and RRIRQRPPRLPRPRPRPDQVPRP are within 0.2 log units of each other in “shrunken log2 fold change” value: 0.00978 for the first, -0.00133 for the second.

Going from RRIRMRPPRLPRPRPRPEWVPRP to RRIRNRPPRLPRPRPRPWWMPRP, the “shrunken log2 fold change” value falls from 0.32 to -0.0246.

RRIRERPPRLPRPRPRPQYGPRP and RRIRRRPPRLPRPRPRPKVGPRP are within 0.2 log units of each other in “shrunken log2 fold change” value: -0.0797 for the first, -0.119 for the second.

RRIRMRPPRLPRPRPRPWPFPRP and RRIRKRPPRLPRPRPRPVIVPRP are within 0.2 log units of each other in “shrunken log2 fold change” value: 0.0942 for the first, -0.0233 for the second.

Going from RRIRARPPRLPRPRPRPCCGPRP to RRIRARPPRLPRPRPRPHACPRP, the “shrunken log2 fold change” value falls from 0.525 to 0.066.

RRIRYRPPRLPRPRPRPSQQPRP and RRIRPRPPRLPRPRPRPGVMPRP are within 0.2 log units of each other in “shrunken log2 fold change” value: 0.102 for the first, 0.0104 for the second.

RRIRWRPPRLPRPRPRPRSCPRP and RRIRPRPPRLPRPRPRPVHMPRP are within 0.2 log units of each other in “shrunken log2 fold change” value: 0.083 for the first, 0.215 for the second.

RRIRLRPPRLPRPRPRPDYVPRP and RRIRFRPPRLPRPRPRPVIKPRP are within 0.2 log units of each other in “shrunken log2 fold change” value: -0.432 for the first, -0.339 for the second.

Going from RRIRARPPRLPRPRPRPMWRPRP to RRIRERPPRLPRPRPRPHFMPRP, the “shrunken log2 fold change” value falls from 0.248 to -0.221.

Going from RRIRKRPPRLPRPRPRPNERPRP to RRIRGRPPRLPRPRPRPDTPPRP, the “shrunken log2 fold change” value rises from -0.0286 to 0.799.

Going from RRIRERPPRLPRPRPRPHPDPRP to RRIRERPPRLPRPRPRPPPKPRP, the “shrunken log2 fold change” value rises from 0.0161 to 0.748.

Compared with RRIRARPPRLPRPRPRPSCCPRP, RRIRYRPPRLPRPRPRPTDSPRP is lower in “shrunken log2 fold change” value: 0.207 for the first, -0.678 for the second.

With RRIRFRPPRLPRPRPRPDLGPRP the “shrunken log2 fold change” value was 0.106.
